Each block holds one binder with its values, some of them ahead of it.
Columns and labels:
Experiment in all cases: holdup assay
Set-up in all cases: key: below the threshold = too weak to quantify, mostly under pKd 3.1 to 4
IL16_3, Q14005 = target: IL16_3, Q14005
PICK1, Q9NRD5 = target: PICK1, Q9NRD5
GOPC, Q9HD26 = target: GOPC, Q9HD26
GRIP2_5, Q9C0E4 = target: GRIP2_5, Q9C0E4
GRIP2_7, Q9C0E4 = target: GRIP2_7, Q9C0E4
CARD11, Q9BXL7 = target: T1, CARD11, Q9BXL7
T1 sequence (Q9BXL7 662-765, limits assumed, looked up): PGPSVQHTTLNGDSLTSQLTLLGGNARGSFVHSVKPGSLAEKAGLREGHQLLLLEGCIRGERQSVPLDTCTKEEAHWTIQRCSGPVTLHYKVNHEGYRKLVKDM

LIN7B, Q9HAP6 = target: T2, LIN7B, Q9HAP6
T2 sequence (Q9HAP6 88-185, limits assumed, looked up): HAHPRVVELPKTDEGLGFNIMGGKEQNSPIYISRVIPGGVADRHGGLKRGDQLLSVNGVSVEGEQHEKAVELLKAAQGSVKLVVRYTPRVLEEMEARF

SCRIB_2, Q14160 = target: SCRIB_2, Q14160
NHERF3_3, Q5T2W1 = target: T3, NHERF3_3, Q5T2W1
T3 sequence (Q5T2W1 238-333, limits assumed, looked up): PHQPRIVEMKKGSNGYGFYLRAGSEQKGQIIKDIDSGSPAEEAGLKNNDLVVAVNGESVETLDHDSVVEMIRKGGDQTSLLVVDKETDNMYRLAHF

SNX27, Q96L92 = target: SNX27, Q96L92
TJP2_1, Q9UDY2 = target: TJP2_1, Q9UDY2
SNTG1, Q9NSN8 = target: T4, SNTG1, Q9NSN8
T4 sequence (Q9NSN8 52-150, limits assumed, looked up): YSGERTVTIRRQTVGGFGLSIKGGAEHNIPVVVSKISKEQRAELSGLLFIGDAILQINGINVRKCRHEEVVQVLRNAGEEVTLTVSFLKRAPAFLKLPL

DLG5_1, Q8TDM6 = target: DLG5_1, Q8TDM6
NHERF4_2, Q86UT5 = target: NHERF4_2, Q86UT5
GRID2IP_2, A4D2P6 = target: GRID2IP_2, A4D2P6
Inadl_10, Q8NI35 = target: Inadl_10, Q8NI35
NHERF3_1, Q5T2W1 = target: T5, NHERF3_1, Q5T2W1
T5 sequence (Q5T2W1 4-100, limits assumed, looked up): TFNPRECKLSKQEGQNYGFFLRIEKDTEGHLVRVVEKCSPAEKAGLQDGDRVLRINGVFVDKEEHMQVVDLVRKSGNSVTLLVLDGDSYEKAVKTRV

PCLO, Q9Y6V0 = target: T6, PCLO, Q9Y6V0
T6 sequence (Q9Y6V0 4491-4600, limits assumed, looked up): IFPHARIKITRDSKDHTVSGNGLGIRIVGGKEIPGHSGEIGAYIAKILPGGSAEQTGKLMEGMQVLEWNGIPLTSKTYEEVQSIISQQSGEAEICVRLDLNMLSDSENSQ

LNX2_2, Q8N448 = target: T7, LNX2_2, Q8N448
T7 sequence (Q8N448 334-432, limits assumed, looked up): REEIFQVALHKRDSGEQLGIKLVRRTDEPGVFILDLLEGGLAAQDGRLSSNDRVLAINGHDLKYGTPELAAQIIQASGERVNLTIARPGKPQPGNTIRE

DLG4_3, P78352 = target: DLG4_3, P78352
NHERF4_1, Q86UT5-2 = target: NHERF4_1, Q86UT5-2
LDB3, O75112 = target: LDB3, O75112
Inadl_5, Q8NI35 = target: Inadl_5, Q8NI35
MAGI2_4, Q86UL8 = target: MAGI2_4, Q86UL8
LAP2, Q96RT1 = target: LAP2, Q96RT1
SCRIB_3, Q14160 = target: SCRIB_3, Q14160
LRRC7, Q96NW7 = target: T8, LRRC7, Q96NW7
T8 sequence (Q96NW7 1440-1537, limits assumed, looked up): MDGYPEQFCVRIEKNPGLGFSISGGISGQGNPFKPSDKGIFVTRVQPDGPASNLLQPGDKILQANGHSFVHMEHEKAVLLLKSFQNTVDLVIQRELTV

HTRA3, P83110 = target: T9, HTRA3, P83110
T9 sequence (P83110 354-453, limits assumed, looked up): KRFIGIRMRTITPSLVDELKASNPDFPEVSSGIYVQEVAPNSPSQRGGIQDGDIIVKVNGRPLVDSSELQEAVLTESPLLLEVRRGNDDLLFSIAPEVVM

[1] = plain residues with an end cap or a label only (N-terminal biotin on a linker: ado-ado)
[2] = plain residues with an end cap or a label only (N-terminal biotin on a linker: ahx)

Chain of IL16_3, Q14005 (Q14005 1107-1207): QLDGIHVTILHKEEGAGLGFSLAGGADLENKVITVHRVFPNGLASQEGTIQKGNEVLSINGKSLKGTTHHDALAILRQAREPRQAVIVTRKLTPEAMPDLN
Chain of SCRIB_3, Q14160 (Q14160 999-1103): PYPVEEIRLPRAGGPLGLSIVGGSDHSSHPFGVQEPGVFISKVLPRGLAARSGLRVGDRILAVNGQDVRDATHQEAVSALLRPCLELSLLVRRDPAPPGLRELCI
Chain of GRID2IP_2, A4D2P6 (A4D2P6 272-370): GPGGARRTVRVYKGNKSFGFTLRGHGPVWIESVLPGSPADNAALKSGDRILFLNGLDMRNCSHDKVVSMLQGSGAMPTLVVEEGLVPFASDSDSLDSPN
Chain of GRIP2_7, Q9C0E4 (Q9C0E4 934-1023): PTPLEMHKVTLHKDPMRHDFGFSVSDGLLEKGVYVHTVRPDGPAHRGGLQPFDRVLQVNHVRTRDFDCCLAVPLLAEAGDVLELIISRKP
Chain of MAGI2_4, Q86UL8 (Q86UL8 772-865): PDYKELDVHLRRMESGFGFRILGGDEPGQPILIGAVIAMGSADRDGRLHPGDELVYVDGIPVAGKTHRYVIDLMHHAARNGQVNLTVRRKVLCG
Chain of TJP2_1, Q9UDY2 (Q9UDY2 24-128): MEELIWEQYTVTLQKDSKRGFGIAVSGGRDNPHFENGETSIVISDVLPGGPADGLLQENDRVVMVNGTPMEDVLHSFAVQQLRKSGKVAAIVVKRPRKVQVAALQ
Chain of NHERF4_1, Q86UT5-2 (Q86UT5 other isoform, or with tags, fused parts or gaps): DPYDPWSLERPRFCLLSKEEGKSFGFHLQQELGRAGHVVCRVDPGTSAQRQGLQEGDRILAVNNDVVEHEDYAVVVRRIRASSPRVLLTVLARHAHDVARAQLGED
Chain of Inadl_5, Q8NI35 (Q8NI35 673-780): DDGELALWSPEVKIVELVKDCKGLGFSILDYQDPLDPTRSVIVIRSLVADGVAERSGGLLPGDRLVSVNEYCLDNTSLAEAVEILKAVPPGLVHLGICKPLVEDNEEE
Chain of NHERF4_2, Q86UT5 (Q86UT5 220-308): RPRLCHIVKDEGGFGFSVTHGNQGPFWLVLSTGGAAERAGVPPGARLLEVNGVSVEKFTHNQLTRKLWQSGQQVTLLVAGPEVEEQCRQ
Chain of GRIP2_5, Q9C0E4 (Q9C0E4 544-642): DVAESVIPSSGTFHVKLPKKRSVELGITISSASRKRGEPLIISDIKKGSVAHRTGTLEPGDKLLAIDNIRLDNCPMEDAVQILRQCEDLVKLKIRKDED
Chain of LDB3, O75112 (O75112 1-94): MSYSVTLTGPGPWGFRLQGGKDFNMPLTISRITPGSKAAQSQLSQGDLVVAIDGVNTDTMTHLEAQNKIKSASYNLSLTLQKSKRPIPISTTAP
Chain of PICK1, Q9NRD5 (Q9NRD5 17-115): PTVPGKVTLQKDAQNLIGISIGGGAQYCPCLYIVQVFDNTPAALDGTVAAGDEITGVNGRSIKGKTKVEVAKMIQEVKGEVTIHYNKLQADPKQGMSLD
Chain of DLG4_3, P78352 (P78352 306-403): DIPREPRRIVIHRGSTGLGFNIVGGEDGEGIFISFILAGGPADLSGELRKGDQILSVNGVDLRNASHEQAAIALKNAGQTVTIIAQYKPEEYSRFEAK
Chain of DLG5_1, Q8TDM6 (Q8TDM6 617-713): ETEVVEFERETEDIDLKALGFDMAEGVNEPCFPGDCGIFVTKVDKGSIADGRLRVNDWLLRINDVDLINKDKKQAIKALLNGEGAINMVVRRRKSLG
Chain of SCRIB_2, Q14160 (Q14160 857-960): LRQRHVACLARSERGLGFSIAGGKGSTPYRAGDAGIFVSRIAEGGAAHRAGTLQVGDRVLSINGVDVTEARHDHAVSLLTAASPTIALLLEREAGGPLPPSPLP
Chain of LAP2, Q96RT1 (Q96RT1 other isoform, or with tags, fused parts or gaps): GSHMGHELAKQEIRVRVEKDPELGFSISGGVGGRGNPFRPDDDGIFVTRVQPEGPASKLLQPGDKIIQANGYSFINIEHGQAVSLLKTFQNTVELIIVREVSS
Chain of Inadl_10, Q8NI35 (Q8NI35 1673-1763): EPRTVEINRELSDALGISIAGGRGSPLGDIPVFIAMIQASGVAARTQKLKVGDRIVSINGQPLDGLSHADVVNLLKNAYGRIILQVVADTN

B1: CIB2, O75838 (peptide)
chain: DFLSTFHIRI
pKd (IL16_3, Q14005; [1]): below the threshold
pKd (PICK1, Q9NRD5; [1]): below the threshold
pKd (GOPC, Q9HD26; [1]): below the threshold
pKd (GRIP2_5, Q9C0E4; [1]): below the threshold
pKd (GRIP2_7, Q9C0E4; [1]): 4.04
pKd (CARD11, Q9BXL7; [1]): below the threshold
pKd (LIN7B, Q9HAP6; [1]): 3.67
pKd (SCRIB_2, Q14160; [1]): below the threshold
pKd (NHERF3_3, Q5T2W1; [1]): below the threshold
pKd (SNX27, Q96L92; [1]): below the threshold
pKd (TJP2_1, Q9UDY2; [1]): below the threshold
pKd (SNTG1, Q9NSN8; [1]): below the threshold
pKd (DLG5_1, Q8TDM6; [1]): below the threshold
pKd (NHERF4_2, Q86UT5; [1]): below the threshold
pKd (GRID2IP_2, A4D2P6; [1]): below the threshold
pKd (Inadl_10, Q8NI35; [1]): below the threshold
pKd (NHERF3_1, Q5T2W1; [1]): below the threshold
pKd (PCLO, Q9Y6V0; [1]): below the threshold
pKd (LNX2_2, Q8N448; [1]): 3.74
pKd (DLG4_3, P78352; [1]): 3.5
pKd (NHERF4_1, Q86UT5-2; [1]): below the threshold
pKd (LDB3, O75112; [1]): below the threshold
pKd (Inadl_5, Q8NI35; [1]): below the threshold
pKd (MAGI2_4, Q86UL8; [1]): below the threshold
pKd (LAP2, Q96RT1; [1]): below the threshold
pKd (SCRIB_3, Q14160; [1]): 3.56
pKd (LRRC7, Q96NW7; [1]): below the threshold
pKd (HTRA3, P83110; [1]): below the threshold

B2: FZD10, Q9ULW2 (peptide)
chain: EIPAQSPTCV
pKd (IL16_3, Q14005; [1]): below the threshold
pKd (PICK1, Q9NRD5; [1]): 3.51
pKd (GOPC, Q9HD26; [1]): 3.94
pKd (GRIP2_5, Q9C0E4; [1]): 3.7
pKd (GRIP2_7, Q9C0E4; [1]): 3.7
pKd (CARD11, Q9BXL7; [1]): 3.56
pKd (LIN7B, Q9HAP6; [1]): below the threshold
pKd (SCRIB_2, Q14160; [1]): below the threshold
pKd (NHERF3_3, Q5T2W1; [1]): 3.57
pKd (SNX27, Q96L92; [1]): 4.08
pKd (TJP2_1, Q9UDY2; [1]): 3.82
pKd (SNTG1, Q9NSN8; [1]): 3.83
pKd (DLG5_1, Q8TDM6; [1]): 3.71
pKd (NHERF4_2, Q86UT5; [1]): below the threshold
pKd (GRID2IP_2, A4D2P6; [1]): 3.67
pKd (Inadl_10, Q8NI35; [1]): 3.55
pKd (NHERF3_1, Q5T2W1; [1]): below the threshold
pKd (PCLO, Q9Y6V0; [1]): 3.47
pKd (LNX2_2, Q8N448; [1]): 5.04
pKd (DLG4_3, P78352; [1]): below the threshold
pKd (NHERF4_1, Q86UT5-2; [1]): 3.91
pKd (LDB3, O75112; [1]): below the threshold
pKd (Inadl_5, Q8NI35; [1]): below the threshold
pKd (MAGI2_4, Q86UL8; [1]): 3.65
pKd (LAP2, Q96RT1; [1]): 3.73
pKd (SCRIB_3, Q14160; [1]): 3.99
pKd (LRRC7, Q96NW7; [1]): below the threshold
pKd (HTRA3, P83110; [1]): 3.95

B5: PTPRG, P23470 (peptide)
chain: DPAESMESLV
pKd (IL16_3, Q14005; [1]): below the threshold
pKd (PICK1, Q9NRD5; [1]): 4.13
pKd (GOPC, Q9HD26; [1]): below the threshold
pKd (GRIP2_5, Q9C0E4; [1]): below the threshold
pKd (GRIP2_7, Q9C0E4; [1]): below the threshold
pKd (CARD11, Q9BXL7; [1]): below the threshold
pKd (LIN7B, Q9HAP6; [1]): below the threshold
pKd (SCRIB_2, Q14160; [1]): 3.68
pKd (NHERF3_3, Q5T2W1; [1]): below the threshold
pKd (SNX27, Q96L92; [1]): 5.42
pKd (TJP2_1, Q9UDY2; [1]): below the threshold
pKd (SNTG1, Q9NSN8; [1]): 4.66
pKd (DLG5_1, Q8TDM6; [1]): below the threshold
pKd (NHERF4_2, Q86UT5; [1]): below the threshold
pKd (GRID2IP_2, A4D2P6; [1]): below the threshold
pKd (Inadl_10, Q8NI35; [1]): below the threshold
pKd (NHERF3_1, Q5T2W1; [1]): 4.7
pKd (PCLO, Q9Y6V0; [1]): below the threshold
pKd (LNX2_2, Q8N448; [1]): 4.3
pKd (DLG4_3, P78352; [1]): below the threshold
pKd (NHERF4_1, Q86UT5-2; [1]): below the threshold
pKd (LDB3, O75112; [1]): below the threshold
pKd (Inadl_5, Q8NI35; [1]): below the threshold
pKd (MAGI2_4, Q86UL8; [1]): 4.25
pKd (LAP2, Q96RT1; [1]): 3.96
pKd (SCRIB_3, Q14160; [1]): 3.92
pKd (LRRC7, Q96NW7; [1]): below the threshold
pKd (HTRA3, P83110; [1]): below the threshold

Results, then the binder that gave them:

pKd (IL16_3, Q14005; [2]): below the threshold
pKd (PICK1, Q9NRD5; [2]): below the threshold
pKd (GOPC, Q9HD26; [2]): 4.07
pKd (GRIP2_5, Q9C0E4; [2]): below the threshold
pKd (GRIP2_7, Q9C0E4; [2]): below the threshold
pKd (CARD11, Q9BXL7; [2]): below the threshold
pKd (LIN7B, Q9HAP6; [2]): below the threshold
pKd (SCRIB_2, Q14160; [2]): below the threshold
pKd (NHERF3_3, Q5T2W1; [2]): below the threshold
pKd (SNX27, Q96L92; [2]): 4.31
pKd (TJP2_1, Q9UDY2; [2]): below the threshold
pKd (SNTG1, Q9NSN8; [2]): 3.52
pKd (DLG5_1, Q8TDM6; [2]): below the threshold
pKd (NHERF4_2, Q86UT5; [2]): below the threshold
pKd (GRID2IP_2, A4D2P6; [2]): below the threshold
pKd (Inadl_10, Q8NI35; [2]): below the threshold
pKd (NHERF3_1, Q5T2W1; [2]): 4.29
pKd (PCLO, Q9Y6V0; [2]): below the threshold
pKd (LNX2_2, Q8N448; [2]): below the threshold
pKd (DLG4_3, P78352; [2]): 4.35
pKd (NHERF4_1, Q86UT5-2; [2]): below the threshold
pKd (LDB3, O75112; [2]): below the threshold
pKd (Inadl_5, Q8NI35; [2]): below the threshold
pKd (MAGI2_4, Q86UL8; [2]): below the threshold
pKd (LAP2, Q96RT1; [2]): 4.42
pKd (SCRIB_3, Q14160; [2]): 3.67
pKd (LRRC7, Q96NW7; [2]): 3.73
pKd (HTRA3, P83110; [2]): below the threshold
B3: RTKN, Q9BST9 (peptide)
chain: QPRTWLQSPV

pKd (IL16_3, Q14005; [1]): below the threshold
pKd (PICK1, Q9NRD5; [1]): below the threshold
pKd (GOPC, Q9HD26; [1]): below the threshold
pKd (GRIP2_5, Q9C0E4; [1]): below the threshold
pKd (GRIP2_7, Q9C0E4; [1]): below the threshold
pKd (CARD11, Q9BXL7; [1]): below the threshold
pKd (LIN7B, Q9HAP6; [1]): below the threshold
pKd (SCRIB_2, Q14160; [1]): below the threshold
pKd (NHERF3_3, Q5T2W1; [1]): below the threshold
pKd (SNX27, Q96L92; [1]): 5.06
pKd (TJP2_1, Q9UDY2; [1]): below the threshold
pKd (SNTG1, Q9NSN8; [1]): below the threshold
pKd (DLG5_1, Q8TDM6; [1]): below the threshold
pKd (NHERF4_2, Q86UT5; [1]): below the threshold
pKd (GRID2IP_2, A4D2P6; [1]): below the threshold
pKd (Inadl_10, Q8NI35; [1]): below the threshold
pKd (NHERF3_1, Q5T2W1; [1]): 4.73
pKd (PCLO, Q9Y6V0; [1]): below the threshold
pKd (LNX2_2, Q8N448; [1]): below the threshold
pKd (DLG4_3, P78352; [1]): below the threshold
pKd (NHERF4_1, Q86UT5-2; [1]): 3.99
pKd (LDB3, O75112; [1]): 3.58
pKd (Inadl_5, Q8NI35; [1]): below the threshold
pKd (MAGI2_4, Q86UL8; [1]): 3.58
pKd (LAP2, Q96RT1; [1]): below the threshold
pKd (SCRIB_3, Q14160; [1]): 3.72
pKd (LRRC7, Q96NW7; [1]): below the threshold
pKd (HTRA3, P83110; [1]): below the threshold
B4: SLC1A1, P43005 (peptide)
chain: TISFTQTSQF
